Assay results as given in US20240209062A1 (INVETX, published 2024).
Changes are numbered by the printed parent chain. Names may count otherwise.

B1: IgG with wild-type feline IgG1a Fc (antibody)
heavy: DVQLVESGGDLVKPGGSLRLTCVASGLSLTSDSMSWVRQAPGKGLQWVSTLWSNRGTYYTDSVKGRFTISKDNAENTLYLQMNNLKTEDTATYYCASIYYYEADYLHWYFDFWGQGALVTVSSASTTAPSVFPLAPSCGTTSGATVALACLVLGYFPEPVTVSWNSGALTSGVHTFPAVLQASGLYSLSSMVTVPSSRWLSDTFTCNVAHPPSNTKVDKTVRKTDHPPGPKPCDCPKCPPPEAAGGPSIFIFPPKPKDTLSISRTPEVTCLVVDLGPDDSDVQITWFVDNTQVYTAKTSPREEQFNSTYRVVSVLPILHQDWLKGKEFKCKVNSKSLPSPIERTISKAKGQPHEPQVYVLPPAQEELSRNKVSVTCLIKSFHPPDIAVEWEITGQPEPENNYRTTPPQLDSDGTYFVYSKLSVDRSHWQRGNTYTCSVSHEALHSHHTQKSLTQSPG
light: EIQMTQSPTSLSASVGDRVTITCRASEGIANNLSWYQQTPGKAPKLLIYATSNLHSGVPSRFSGSGSGTDFTLTISSLQPEDFATYYCQQGFKWPLTFGGGTKLEITRSDAQPSVFLFQPSLDELHTGSASIVCILNDFYPKEVNVKWKVDGVVQNKGIQESTTEQNSKDSTYSLSSTLTMSSTEYQSHEKFSCEVTHKSLASTLVKSFNRSECQRE
notes: Constant domain carries the MALA mutations (M234A, L244A as printed); variable domains from WO 2023/97275; also called Wild-type Fc; wild type feline Fc
B2: IgG with feline IgG1a Fc variant S252M, L309V (antibody)
heavy: B1 heavy with S261M, L318V
light: B1 light
notes: IgG1a constant domain with MALA mutations (M234A, L244A as printed); variable domains from WO 2023/97275
B3: IgG with feline IgG1a Fc variant S252M, Q311V (antibody)
heavy: B1 heavy with S261M, Q320V
light: B1 light
notes: as for B2
B4: IgG with feline IgG1a Fc variant S252M, I377L (antibody)
heavy: B1 heavy with S261M, I386L
light: B1 light
notes: Printed '1377L' read as I377L; IgG1a constant domain with MALA mutations (M234A, L244A as printed); variable domains from WO 2023/97275; also called S252M, 1377L
B5: IgG with feline IgG1a Fc variant S252M, L309D (antibody)
heavy: B1 heavy with S261M, L318D
light: B1 light
notes: as for B2
B6: IgG with feline IgG1a Fc variant S252M, R392D (antibody)
heavy: B1 heavy with S261M, R403D
light: B1 light
notes: as for B2
B7: IgG with feline IgG1a Fc variant S252M (antibody)
heavy: B1 heavy with S261M
light: B1 light
notes: as for B2
B8: IgG with feline IgG1a Fc variant S252M, R301V (antibody)
heavy: B1 heavy with S261M, R310V
light: B1 light
notes: as for B2
B9: IgG with feline IgG1a Fc variant S252M, R301L (antibody)
heavy: B1 heavy with S261M, R310L
light: B1 light
notes: as for B2
B10: IgG with feline IgG1a Fc variant S252M, R392E (antibody)
heavy: B1 heavy with S261M, R403E
light: B1 light
notes: as for B2
B11: IgG with feline IgG1a Fc variant S252M, R301Y (antibody)
heavy: B1 heavy with S261M, R310Y
light: B1 light
notes: as for B2
B12: IgG with feline IgG1a Fc variant S252M, I377Y (antibody)
heavy: B1 heavy with S261M, I386Y
light: B1 light
notes: Printed '1377Y' read as I377Y; IgG1a constant domain with MALA mutations (M234A, L244A as printed); variable domains from WO 2023/97275; also called S252M, 1377Y

Molecular target: T1, feline FcRn (soluble portion of large subunit p51 isoform X1 with C-terminal 6xHis-tag, co-expressed with … (feline, UniProt Q5MGS7 21-118))
T1 construct: Heterodimer made by co-expression in CHO cells, purified on HisTrap FF; also called FcRn complex
T1 sequence (chain, as listed by the source limits assumed, chain 1 of 2): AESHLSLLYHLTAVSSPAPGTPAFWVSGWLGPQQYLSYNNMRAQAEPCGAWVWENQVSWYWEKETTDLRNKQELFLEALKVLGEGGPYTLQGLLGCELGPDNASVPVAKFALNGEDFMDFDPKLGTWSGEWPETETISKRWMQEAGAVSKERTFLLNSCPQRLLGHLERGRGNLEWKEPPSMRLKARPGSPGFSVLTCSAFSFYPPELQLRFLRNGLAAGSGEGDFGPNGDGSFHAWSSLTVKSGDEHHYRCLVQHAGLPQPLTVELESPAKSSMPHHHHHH
T1 sequence (Q5MGS7 other isoform, or with tags, fused parts or gaps limits assumed, chain 2 of 2): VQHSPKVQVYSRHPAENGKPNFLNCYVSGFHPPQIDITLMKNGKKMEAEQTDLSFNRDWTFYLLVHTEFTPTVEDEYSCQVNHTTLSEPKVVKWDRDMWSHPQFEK
Assay: SPR, Biacore T200, IgG captured on Protein L chip, feline FcRn flowed over, pH 5.9, 1:1 fit
Experimental: The feline FcRn binding experiments at pH 5.9 were completed on a BIACORE™ T200 instrument. A Series S Protein L Sensor chip (Cytiva, Cat. No. BR29205137) was used to capture the antibody variants via the kappa (κ) light chain. The feline variants were captured onto the protein L chip at a flow rate of 10 μL/min for 60 seconds. 1×PBX-P+(Cytiva Cat 28995084) was adjusted to pH 5.9 for the running buffer. The feline FcRn was flowed over the sensor chip at 30 μL/min for 120 seconds contact time and 600 seconds dissociation time. Regeneration of the flow cells was completed by flowing over 10 mM glycine, pH 1.7 at 30 μL/min for 30 seconds. The data were evaluated by the BIACORE™T200 Evaluation software v3.2.1 by fitting to a 1:1 kinetic interaction model.

Row | Binder | Kd | koff | kon
1 | B1 | 417 nM | 0.273 s⁻¹ | 709000 M⁻¹ s⁻¹
2 | B2 | 129 nM | 0.124 s⁻¹ | 958000 M⁻¹ s⁻¹
3 | B3 | 152 nM | 0.121 s⁻¹ | 865000 M⁻¹ s⁻¹
4 | B4 | 216 nM | 0.187 s⁻¹ | 869000 M⁻¹ s⁻¹
5 | B5 | 352 nM | 0.203 s⁻¹ | 581000 M⁻¹ s⁻¹
6 | B6 | 268 nM | 0.229 s⁻¹ | 856000 M⁻¹ s⁻¹
7 | B7 | 279 nM | 0.192 s⁻¹ | 690000 M⁻¹ s⁻¹
8 | B8 | 278 nM | 0.206 s⁻¹ | 745000 M⁻¹ s⁻¹
9 | B9 | 280 nM | 0.332 s⁻¹ | 1.2e+06 M⁻¹ s⁻¹
10 | B10 | 186 nM | 0.177 s⁻¹ | 965000 M⁻¹ s⁻¹
11 | B11 | 258 nM | 0.18 s⁻¹ | 695000 M⁻¹ s⁻¹
12 | B12 | 202 nM | 0.175 s⁻¹ | 862000 M⁻¹ s⁻¹
